Reference: the nanobody polyreactivity screen of Harvey et al. (2022)

Experiment: yeast display, Sf9 membrane polyspecificity reagent, FACS + sequencing; frameworks hold sequencing errors
Outline: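 Galactose induction of a Saccharomyces cerevisiae BJ5465 synthetic nanobody display library ran 36–48 hours. The cells were then stained for 1 hour at 4 °C with 10% biotinylated, detergent-solubilized Sf9 membrane reagent, pulled down on streptavidin microbeads and FACS-sorted into low and high (top ~1%) gates on expression and reagent-binding fluorescence. Labels for polyreactivity follow the gate of origin.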

| Sequence | polyreactivity (PSR sort gate) |
| --- | --- |
| QVQLVESGGGLVQAGGSLRLSCAASGRTFYKYAMGWYRQAPGKERELVAAISSRGGRTYYADSVKGRFTISRDNATNTVYLQMNSLKPEDTAVYYCAAKGRPDGKYDYWGQGTQVTVSS | high polyreactivity |
| QVQLVESGGGLVQAGGSLRLSCAASGRIFAGYTMGWYRQAPGKERELVAAISGSGGRTYYADSVKGRFTISRDIAKNTVYLQMNSLKPEDTAVYYCAAYRSRTYGYWGQGTQVTVSS | high polyreactivity |
| QVQLVESGGGLVQAGGSLRLSCAASGSIFGDYAMGWYRQAPGKERELVAGITQSGSSTYYADSVKGRFTISRDNAKNTVYLQMNSLKPEDTAVYYCNKDWGPGPNEFDYWGQGTQVTVSS | low polyreactivity |
| QVQLVESRGGLVQAGGSLRLSCAASGIIFPRYAMGRYRQAPRKERELVAAITRRGGRTYYADSVKGRFTISRDNANNTVYLQMNSLKPEDTAVYYCNADFISTRPPKATDEDYWGQGTQVTVSS | high polyreactivity |
| QVQLVESGVGLVQAGGSLRLSCAASGRTFFGYAMGWYRQAPGKEREFVARISWRGTSTTYADSVKGRFTISRDNAKNTVYLQMNSLKPEDTAVYYCAASQYGLRVYFTVGYWGQGTQVTVSS | high polyreactivity |
| QVQLVETVVGLVQAGGSLRLSCAASGSIFGFYDMGWYRQAPGKERELVAVISVSDGSTYYADSVKGRFTISRDNAKNTVYLQMNSLKAEDTAVYYCAATPRGSYGYYYWGQGTQVTVSS | low polyreactivity |
| QVQLVESGGGLVQAGGSLRLSCSASGSTFYVYAMGWYRQAPGKERELVAAIDWSDGSTYYADSVKGRFTISRDNAKNTVYLQMNSLKPEDTAVYYCAADVGGGVDYVDYYYWGQGTQVTVSS | high polyreactivity |
| QDQLVESGGGLVQAGGSLRLSCAASGRTFASYAMGWYRQAPGKERELVAAITSSGGRTYYADSVKGRFTISRDYAKNTVYLQMNSLKPEVTAVYYCAVRGTKGYGYWGQGTQVTVSS | high polyreactivity |
| QVQLVESGGGLVQAGGSLRLSCAASGFTFASNVMGWYRQAPGKERELVAAITSGASTNYADSVKGRFTISRDNAKNTVYLQMNSLKPEDTAVYYCAAGRQWYVFYEFDYWGQGTQVTVSS | high polyreactivity |
| QVQLVESGGGLVQAGGSLRLSCAASGLIFKYYAMGWYRQAPGKERELVAAITGRGGSTYYADSVKGRFTISRDNAKNTVYLQMNSLKPEDTAVYYCARRRTYSFNPVTYDWGQGTQVTVSS | high polyreactivity |
| QVQLVESGGGLVQAGGSLRLSCAASGRIFLIYAMGWYRQAPGKDRELVAAISGRGGGTTYYADSVKGRFTISRDNAKITVYLQMNSLKPEATAVYYCAARNGGHKYYYWGQGTQVTVSS | high polyreactivity |
| QVQRVESGGGLVQAGGSLRLSSADSGLTLYRYAMGWYRQAPGKERELVAAISSGDRTNYADSVKGRFTISRDNAKNTVYLHMNSLKPEDTAVYYCAALRQARQKKYGYWGQGTQVTVSS | high polyreactivity |
| QVQLVESGGGLVQAGGSLRLSCDASGSTFVHYAMGWYRQAPGKERQLVAAISSSGDSTYYADSVKGRFTISRDNAKNTVYLKMNSLKPEDTAVYYCAVRSRTPRAYYYWGQGTQVTVSS | low polyreactivity |
| QVQLVESGGGLVQAGGSLRLSCAASGLIFRYYAMGWYRQAPGKESELVAAITSGGGTYYADSVKGRFTISRDNAKNTVYLQMNSLKPEDTAFYYCAVGSYGHPKHRRNLDYWGQGTQVTVSS | low polyreactivity |
| QVRLVESGGGLVQAGGSLRLSCAASGRTFRIYAMGWYRQAPGKERELVAAIRWSGGTTYYADSVKGRFTISRDNAKNTVYLQMNSLKPEDTAVYYCNTNSYYEDDYWGQGTQVTVSS | high polyreactivity |
| QVQLVESGGGLVQAGGSLRLSCAASGSIFPWYAMGWYRQAPWKERELVAGISSGGGTNYADSVKGRFTISRDNAKNTVYLQMNSMKPEDTAVYYCNADYFGGGDYWGQGTQVTVSS | low polyreactivity |
| QVQLVESGGGLVQAGGSLRLRCAASGRTFKVYAMGWYRQAPGKERELVAAISYSGAGTRYADSVKGRFTISRDNAKNTVYLQMNSLKPEDTAVYYCNTDAWARVKRYEYWGQGTQVTVSS | low polyreactivity |
| QVQLVESGGGLVQAGGSLRLSCAASGFTFDNYAMGWYRQAPGKERELVAAINWSGDRTYYADSVKGRFTISRDNAKNTVYLQMNSQIPEDTAVYYCNAVTSWAGSLDYWGQGTQVTVSS | high polyreactivity |
| HVQLVESGGGLVQAGVSLRLSCAASGRLLEGYAMGWYRQAPGKERELVAAISFSTTTTYYADSVKGRFTISRDNAKNTVYLQMNSLKPEDTAVYYCAADSQQSDYDYWGQGTQVTVSS | high polyreactivity |
| QVQIVESGGGLVQAGGSLRLSCAASGRTVKFYAMGWYRQAPGKERELVARITSNSGSTYYADSVKGRFTISRDNAKNTVYLQMNSLKPEDTAVYYCAARGRYRQFNYWGQGTQVTVSS | high polyreactivity |
| QVQLVESGGGLVQAGGSLRLSCADSGFTFATYAMGWYRQAPGKKGRLVAAISNAGSTKYADSVKGRFTISRDNAKNTFYLQLNSLKPEDTAVYYCAASTLYASYYYLYYYWGQGTQVTVSS | high polyreactivity |
| QVQLVESGGGLVQAGGSRRLSCAASGRIFTYYAMGWYRQAPGKERELVAAISSGGSTYYADSVKGRFTISRDNAKNTVYLQMNSLKPEDTAVYYCAAAGGYYGVNWRGDSWGQGTQVTVSS | high polyreactivity |

| Sequence | polyreactivity (PSR sort gate) |
| --- | --- |
| QVQLVESGGGLVQAGGSLRLSCAASGSIFGSYAMGWYRQAPGKERELVAVITSSGNTKYADSVKGRFTISRDNAKNTVYLQMNSLKPEDTAVYYCAARFITWCSQYSFRSMDYWGQGTQVTVSS | high polyreactivity |
| HVRLQESVGGLVQAGGSLRQSCAASGAISPYYDMGWYRLAPGKEREFVASIAHGGTTYYADSVKGRFTTSRDNAKNTVYLQMNSLKPEDTAVYYCAVAYDVWHSHIYRGQGTQVTVSS | high polyreactivity |
| QVQLVESGGGLVQAGGSLRLSCAASGRTFSGNALGWSTHAPGKERELVAAITSSGGSTYYADSVKGRFTISRENAKNTVYLQMNSLKPEDTAVYYCNTDPQGRTVVYGGDDYWGQGTQVTVSS | low polyreactivity |
| KVQLVESGGGLVQAGGSLRLSRAASGFTFGSYAMGWYRQAPGKERELVAAITRRGGSTRYADSVKGRFTISRDNAKNTVYLQMNSLKPEDTAVYYCAAKHGRNYAANALYGYWGQGTQVTVSS | high polyreactivity |
| QVQLVETGGGLVQAGGSLRLSCADSGRIFRYNAMGWYRHAHGKERELVAAITLSTGSTYYADSVKGRFTISRDNAKNTVYLQMNSLKPEDTAVYYCAARIDGRTYARRVYYWGQGTQVTLSS | high polyreactivity |
| QDQLVESGGGLVQAGGSLRLSCAASGSTFYFNAMGWYRPAPGKEREFVAVIDGSGGFTYYADSVKGRFTISRDNAKNTVYLQLNILKPEDTAVYYCNADLVYNTFFYSGGDEYDYWGQGTQVNVSS | high polyreactivity |
| QVQLVESGGGLVQAGGSLRLSCAASGFTFKYYAMGWYRQAPGKERELVAAISSGATTYYADSVKGRFTISRDNAKNTVYLQMNSLKPEDTAVYYCNANRFRRYDWGQGTLVTVSS | high polyreactivity |
| QVQLVESGGGLVQAGGSLRLTCAASGRIFRVNGMGWYRQAPWKERDLVAPIRRSGGSTYYADSVKGRFTISRDNSKNNVYLQMKSLKPEDTAVYYCAAPVLLSSYTRYDSWGQGTQVTVSS | high polyreactivity |
| QGQLVESGEGLVQAGGSLRLRCAASGSIIRYYTMGGYRQAPGKERELVAAISWSGGSTYYADSVKGRFTISRDNANNTVYLQMNSLKPEETSVYYCNAVSFAYNPYSATYDYWGQGTQVTVSS | high polyreactivity |
| QVQLVESGGGLVQAGGSLRLSCAASGRTFVGYAMGWYRQAPGKERELLAAISKSGGRTYYADSVKGRFTISRDNAKNTVFLQMNSLKPDDTAVYYCNAVVVYYVDAGRYDYWGQGTQVTVSS | high polyreactivity |
| QFQLVESGGGLVQAGGSLRLSCAASGSIFVTNAMGWYRQAPGKERELVAAISSGGNTNYADSVKGRFTISRDNAKNTVYLQMNSLKPEDTAVYYCAKDPDKVDFVDMDYWGQGTQVTVSS | low polyreactivity |
| QVQLVASGGGLVQSGGSLRLSCAASGTTFGYYAMGWYIQAPGKERELVAAITKSGGSTFYAESVKGRFTISRDNAKNTVYLQMNSLKPEDTAVYYCAARYKGQYYRQGRHDYWGQGTQVTVSS | high polyreactivity |
| QVQLVESGGGLVQAGGSLRLSCAASGRIFGDYAMGWYRQAPGKERELVARITWSGTGTYYADSVKGRFTISRDNAKNTVYLQMNSLKPEDTAVYYCNADWQVQWYYYWGHGTQVTVSS | low polyreactivity |
| QVQLQESGGGLVQAGGSLRLSCAASGSIFYEFYMGWYRQAPGKERELVAAIANGASTYYADSVKGRFTISRDNSKNTVYLQMSSLKPEDTAVYYCAVNTTSDIDYIYWGQGTQVNVSS | low polyreactivity |
| QVQLVESGGGLVQAGGSLRLSCAASGFIFWGNAMGWYRQAPGKERELLAAINYSGGRTYYADSVKGRFTISRDNAKNTVYLQMNSLKPEDSAAYYCAAKYRYHVSGYDYWGQATQVTVSS | high polyreactivity |
| QLQLVESGAGLVQAGGSLRLSCAASGRIFAYNTMGRYRQAHGKERELVAVITSGGSTNYADYVKGRFTISRDNAKNTVYLQMNSLKPEDTAVYYCAKRPYGGSGGYRYDYWGQGTQVTVSS | high polyreactivity |
| QVKLVDSGGGLVQAGGILRLSCAASGRIFSDYAMGWYRQAPGKERELVATITSGDSTNYADSVKGRFTISRDNAKNTVYLQMNSLKPEDTAVYYCNADRVYVRGRFTYDYWGQGTQVTVSS | low polyreactivity |
| QVQLVESGGGLVQAGGSLRLSCAASGSIFYQNARGWYRQAPGKERELVAAISISDGSTYYADSVNGRFTISRDNAKNTVYLQMNILKPEDTAVYYCNADSLYYDPYDYWGQGTQVTVSS | low polyreactivity |
| QVQLVESGGGLVQAGGSLRLSCAASGSIFTHYAMGWYRQAPGKERELVAAIARRGGSTYYADSVKGRFTISRDNAKNTVYLQMNSLKPEDTAVYYCAKSPDTAKEYDYWGQGTQVTVSS | high polyreactivity |
| QVQLVESGGGLVQAGGSLRLSCAASGSTFRSYAMGWYRQAPGKERELVAVISSGDSTYYADSVKGRFTISRDNAKNTVYLQMNSLKPEDTAVYYSAADSYVLGRWYGYWGQGTQVTVSS | low polyreactivity |
| QVQLVESGGGLVQAGGSLRLSCAASGIIFGYYAMGWYRQAPGKEREFVAAINYSGVSTYYADSVKGRFTISRDNAKNTVYLQMNSLKPEDTAVYSCAADFRIVVYGWGGSHMDYWGQGTQVTVSS | low polyreactivity |
